Target: the molecule itself
Assay: SAXS

Row | Protein | stoichiometry N
1 | human cytosolic malate dehydrogenase, splice variant 3 (hMDH1V3) (enzyme, UniProt P40925-3 1-352, looked up) MGRRCSYFPKDVTVFDKDDKSEPIRVLVTGAAGQIAYSLLYSIGNGSVFGKDQPIILVLLDITPMMGVLDGVLMELQDCALPLLKDVIATDKEDVAFKDLDVAILVGSMPRREGMERKDLLKANVKIFKSQGAALDKYAKKSVKVIVVGNPANTNCLTASKSAPSIPKENFSCLTRLDHNRAKAQIALKLGVTANDVKNVIIWGNHSSTQYPDVNHAKVKLQGKEVGVYEALKDDSWLKGEFVTTVQQRGAAVIKARKLSSAMSAAKAICDHVRDIWFGTPEGEFVSMGVISDGNSYGVPDDLLYSFPVVIKNKTWKFVEGLPINDFSREKMDLTAKELTEEKESAFEFLSSA | 2
2 | human mitochondrial malate dehydrogenase (hMDH2), wild type (enzyme, UniProt P40926-1 25-338, looked up) AKVAVLGASGGIGQPLSLLLKNSPLVSRLTLYDIAHTPGVAADLSHIETKAAVKGYLGPEQLPDCLKGCDVVVIPAGVPRKPGMTRDDLFNTNATIVATLTAACAQHCPEAMICVIANPVNSTIPITAEVFKKHGVYNPNKIFGVTTLDIVRANTFVAELKGLDPARVNVPVIGGHAGKTIIPLISQCTPKVDFPQDQLTALTGRIQEAGTEVVKAKAGAGSATLSMAYAGARFVFSLVDAMNGKEGVVECSFVKSQETECTYFSTPLLLGKKGIEKNLGIGKVSSFEEKMISDAIPELKASIKKGEDFVKTLK | 2

Source: article doi:10.1101/2025.07.15.665002 (bioRxiv, 2025)
